According to paper PMC10801562 (Antibodies, 2024):
Substitutions are numbered along the chain they refer to. Blank lines part the entries; values can stand above or below the binder they belong to.

Molecular target: T1, recombinant human CD3ε-CD3δ heterodimeric protein (CD3εδ) (Homo sapiens)
T1 construct: human CD3ε of the recombinant CD3εδ heterodimer; human CD3δ of the recombinant CD3εδ heterodimer; source: in-house prepared
T1 chain 1: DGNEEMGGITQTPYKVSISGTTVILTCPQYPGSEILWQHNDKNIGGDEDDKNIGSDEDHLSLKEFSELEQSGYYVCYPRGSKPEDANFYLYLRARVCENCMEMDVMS
T1 chain 2: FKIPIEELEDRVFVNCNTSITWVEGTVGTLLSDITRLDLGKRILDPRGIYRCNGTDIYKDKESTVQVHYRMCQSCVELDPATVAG
Experiment: SPR; Biacore T200, 37 °C, pH 7.4, PB-P+; antibody captured (630 RU) by anti-mouse IgG (Fc) antibody on a CM4 chip; human CD3εδ as analyte, 1.2-4800 nmol/L; 1:1 binding model (mUCHT1, mSP34)
Conditions: both partners purified

Kd: 1.32 nM
B1: mUCHT1 mIgG2a V1+C19, homodimeric antibody with FAST-Ig V1+C19 mutations (antibody, V domains shown)
VH: EVQLQQSGPELVKPGASMKISCKASGYSFTGYTMNWVKESHGKNLEWMGLINPYKGVSTYNQKFKDKATLTVDKSSSTAYMELLSLTSEDSAVYYCARSGYYGDSDWYFDVWGQGTTLTVFS
VL: DIQMTQTTSSLSASLGDRVTISCRASQDIRNYLNWYQKKPDGTVKLLIYYTSRLHSGVPSKFSGSGSGTDYSLTISNLEQEDIATYFCQQGNTLPWTFAGGTKLEIK
notes: VH of mUCHT1; mouse IgG2a (mIgG2a) heavy chain constant region; numbers count on: Eu numbering; VL of mUCHT1; mouse kappa light chain constant region (CL); numbers count on: Kabat numbering; Whole IgG of one HC and one LC; also called anti-CD3; H2L2H2L2; source: Expi293F, transiently expressed, purified (Ab-Capcher MAG2, MonoSpin ProA or MonoSpin ProG); copies: 2 + 2

Kd: 1.45 nM
B2: mUCHT1 mIgG1, homodimeric antibody without FAST-Ig mutations (antibody, V domains shown)
VH: B1 VH with E39Q
VL: B1 VL with K38Q
notes: VH of the original mouse antibody mUCHT1; mouse IgG1 (mIgG1) heavy chain constant region; numbers count on: Eu numbering; VL of the original mouse antibody mUCHT1; mouse kappa light chain constant region (CL); Whole IgG of one HC and one LC; also called anti-CD3; H2L2H2L2; source: Expi293F, transiently expressed, purified (Ab-Capcher MAG2 or MonoSpin ProG); copies: 2 + 2

Kd: 25.7 nM
B3: mSP34 mIgG2a V1+C19, homodimeric antibody with FAST-Ig V1+C19 mutations (antibody, V domains shown)
VH: EVQLVESGGGLVQPKGSLKLSCAASGFTFNTYAMNWVREAPGKGLEWVARIRSKYNNYATYYADSVKDRFTISRDDSQSILYLQMNNLKTEDTAMYYCVRHGNFGNSYVSWFAYWGQGTLVTVSA
VL: QAVVTQESALTTSPGETVTLTCRSSTGAVTTSNYANWVQKKPDHLFTGLIGGTNKRAPGVPARFSGSLIGDKAALTITGAQTEDEAIYFCALWYSNLWVFGGGTKLTVL
notes: VH of mSP34; mouse IgG2a (mIgG2a) heavy chain constant region; numbers count on: Eu numbering; VL (lambda) of mSP34; mouse lambda light chain constant region (CL); numbers count on: Kabat numbering; Whole IgG of one HC and one LC; also called anti-CD3; H2L2H2L2; source: Expi293F, transiently expressed, purified (Ab-Capcher MAG2, MonoSpin ProA or MonoSpin ProG); copies: 2 + 2

Kd: 20.9 nM
B4: mSP34 mIgG1, homodimeric antibody without FAST-Ig mutations (antibody, V domains shown)
VH: B3 VH with E39Q
VL: B3 VL with K40E
notes: VH of the original mouse antibody mSP34; mouse IgG1 (mIgG1) heavy chain constant region; numbers count on: Eu numbering; VL (lambda) of the original mouse antibody mSP34; mouse lambda light chain constant region (CL); Whole IgG of one HC and one LC; also called anti-CD3; H2L2H2L2; source: Expi293F, transiently expressed, purified (Ab-Capcher MAG2 or MonoSpin ProG); copies: 2 + 2
